Data: patent US11434267B2, “Peptides having reduced toxicity that stimulate cholesterol efflux” (The Regents of the University of California, priority 2013, dated 2022)

How the values were obtained:
cynomolgus monkeys = experiment: IV infusion toxicity of ATI-5261 in monkeys; assay type: in vivo, cynomolgus monkey
Procedure: Male (upper panel) and female (lower panel) cynomolgus monkeys were administered ATI-5261 at a fixed dose of 100 mg/kg by IV infusion (60 min) every 96 hours for a total of 4 injections. Blood was collected 24 h post infusion and levels of plasma ALT, AST, creatine kinase (CPK), and total and indirect bilirubin determined. Values are expressed as a fold-increase vs. pre-dose levels.

C57Bl/6 mice [1] = assay type: in vivo; settings: 300 mg/kg IP, male chow-fed C57Bl/6 mice
Procedure: The high-dose cytotoxic response of ATI-5261 observed in rat, rabbit and cynomolgus monkey is additionally recapitulated in mice (FIG. 4). Male chow-fed C57bl/6 mice were injected intraperitonelly (IP) with 30 or 300 mg/kg of lipid-fee ATI-5261. Blood was collected via the retro-orbital plexus 4 h after peptide injection and plasma subsequently obtained for measurement of CPK (Panel A) and ALT and AST activities (Panel B, ALT left bars, AST, right bars). Values are means±SD, n=4 mice per group.
This example illustrates that aromatic phenylalanine residues associated with the non-polar surface of ATI-5261 contributed to the majority of the peptide toxicity (FIG. 5). […] Blood was collected via retro-orbital plexus 4 h after injection for isolation of plasma. Levels of plasma CPK (Panel A), ALT (panel B) and AST (Panel C) were determined as described in FIG. 1. Values are means±SD, n=4 mice per group.
The concentrations of plasma lipids in C57Bl/6 mice following administration of the aliphatic analogs of ATI-5261 was also determined. […] All values (mg/dl) are means±SD, n=4, determined at 4 and 6 h post treatment with peptide.

human plasma = experiment: Cholesterol efflux activity of human plasma treated with lipid-free peptide (J774 cells); assay type: cell-based; settings: plasma + 300 μg/ml peptide 5 min 4° C., diluted to 1%, cAMP treated J774
Procedure: (FIG. 33). To test whether CS6253 exerts anti-atherogenic effects in a biological milieu, human plasma was exposed (5 min) to lipid-free peptide. Interactions of CS6253 with HDL in plasma and activity of plasma to stimulate cholesterol efflux was assessed; the latter using J774 macrophages labeled with [3H]cholesterol. Panel A—Cholesterol efflux activity of plasma treated with lipid-free peptides. Human plasma was incubated with 300 μg/ml peptides for 5 minutes (4° C.), diluted to 1% in serum-free RPMI-1640 culture medium and immediately added to [3H]cholesterol-labeled J774 cells. […] Panel B—Induction of preβ HDL upon treatment of human plasma with CS6253. Plasma was exposed to a small amount of peptide relative to endogenous apoA-I (1:10 mole ratio, respectively) and formation of preβ HDL assessed by 2D non-denaturing gradient gel electrophoresis (NDGGE) and western blot analysis. […] The results are consistent with the production of authentic preβ HDL particles composed entirely of endogenous apoA-I.
To test whether T6991-2 exerts anti-atherogenic effects in a biological milieu, human plasma was exposed (5 min) to lipid-free peptide. Interactions of T6991-2 with HDL in plasma and activity of plasma to stimulate cholesterol efflux was assessed using J774 macrophages labeled with [3H]cholesterol. Panel A—Cholesterol efflux activity of plasma treated with lipid-free peptides. […]

C57Bl/6 mice [2] = settings: mouse, in vivo, ip, 300 mg/kg

With “ATI-5261: HDL mimetic peptide, parent peptide with phenylalanine and arginine residues; toxic at high doses; used as positive control (EVRSKLEEWFAAFREFAEEFLARLKS)” the “cytotoxic response (ALT, AST, CPK, bilirubin)” value (cynomolgus monkeys; 100 mg/kg IV infusion (60 min) every 96 hours, 4 injections, 24 h post infusion) was “induced a cytotoxic response”, the “plasma creatine kinase, fold-increase vs. pre-dose” value (cynomolgus monkeys; 100 mg/kg IV infusion, after the first infusion, male and female) was “marked increase” and the “TG elevating effect (plasma TG, cholesterol)” value (C57Bl/6 mice [1]; 4 and 6 h) was “marked increase in plasma TG, total and unesterified (free) cholesterol (FC)”. For the same substance, the “cytotoxic/toxic response (plasma CPK, ALT, AST)” value (C57Bl/6 mice [1]; 4 h) was “High levels of cytotoxic markers”, the “capacity of treated plasma to stimulate cholesterol efflux via ABCA1” value (human plasma) was “possessed greater capacity to stimulate cholesterol efflux” and the “triglyceride (TG)” value (C57Bl/6 mice [2]) was “triglyceride (TG) elevation effects”.
